Sequences and labels used below:
B1: R4-21 (Ac-RRRREDDD(2Nala)…-NH2) (peptide)
peptide: Ac-RRRREDDD[2Nal]IDWGPTSDDD-NH2
SMILES: CC[C@H](C)[C@H](NC(=O)[C@H](Cc1ccc2ccccc2c1)NC(=O)[C@H](CC(=O)O)NC(=O)[C@H](CC(=O)O)NC(=O)[C@H](CC(=O)O)NC(=O)[C@H](CCC(=O)O)NC(=O)[C@H](CCCNC(=N)N)NC(=O)[C@H](CCCNC(=N)N)NC(=O)[C@H](CCCNC(=N)N)NC(=O)[C@H](CCCNC(=N)N)NC(C)=O)C(=O)N[C@@H](CC(=O)O)C(=O)N[C@@H](Cc1c[nH]c2ccccc12)C(=O)NCC(=O)N1CCC[C@H]1C(=O)N[C@H](C(=O)N[C@@H](CO)C(=O)N[C@@H](CC(=O)O)C(=O)N[C@@H](CC(=O)O)C(=O)N[C@@H](CC(=O)O)C(N)=O)[C@@H](C)O
B2: …(N-Me-V)SRED (peptide)
peptide: Ac-PWAIVWGPT[NMeV]SRED-NH2
SMILES: CC[C@H](C)[C@H](NC(=O)[C@H](C)NC(=O)[C@H](Cc1c[nH]c2ccccc12)NC(=O)[C@@H]1CCCN1C(C)=O)C(=O)N[C@H](C(=O)N[C@@H](Cc1c[nH]c2ccccc12)C(=O)NCC(=O)N1CCC[C@H]1C(=O)N[C@H](C(=O)N(C)[C@H](C(=O)N[C@@H](CO)C(=O)N[C@@H](CCCNC(=N)N)C(=O)N[C@@H](CCC(=O)O)C(=O)N[C@@H](CC(=O)O)C(N)=O)C(C)C)[C@@H](C)O)C(C)C
B3: …(N-Me-R)ED (peptide)
peptide: Ac-PWAIVWGPTVS[NMeR]ED-NH2
SMILES: CC[C@H](C)[C@H](NC(=O)[C@H](C)NC(=O)[C@H](Cc1c[nH]c2ccccc12)NC(=O)[C@@H]1CCCN1C(C)=O)C(=O)N[C@H](C(=O)N[C@@H](Cc1c[nH]c2ccccc12)C(=O)NCC(=O)N1CCC[C@H]1C(=O)N[C@H](C(=O)N[C@H](C(=O)N[C@@H](CO)C(=O)N(C)[C@@H](CCCNC(=N)N)C(=O)N[C@@H](CCC(=O)O)C(=O)N[C@@H](CC(=O)O)C(N)=O)C(C)C)[C@@H](C)O)C(C)C
B4: …(N-Me-E)D (peptide)
peptide: Ac-PWAIVWGPTVSR[NMeE]D-NH2
SMILES: CC[C@H](C)[C@H](NC(=O)[C@H](C)NC(=O)[C@H](Cc1c[nH]c2ccccc12)NC(=O)[C@@H]1CCCN1C(C)=O)C(=O)N[C@H](C(=O)N[C@@H](Cc1c[nH]c2ccccc12)C(=O)NCC(=O)N1CCC[C@H]1C(=O)N[C@H](C(=O)N[C@H](C(=O)N[C@@H](CO)C(=O)N[C@@H](CCCNC(=N)N)C(=O)N(C)[C@@H](CCC(=O)O)C(=O)N[C@@H](CC(=O)O)C(N)=O)C(C)C)[C@@H](C)O)C(C)C
B5: …(N-Me-D) (peptide)
peptide: Ac-PWAIVWGPTVSRE[NMeD]-NH2
SMILES: CC[C@H](C)[C@H](NC(=O)[C@H](C)NC(=O)[C@H](Cc1c[nH]c2ccccc12)NC(=O)[C@@H]1CCCN1C(C)=O)C(=O)N[C@H](C(=O)N[C@@H](Cc1c[nH]c2ccccc12)C(=O)NCC(=O)N1CCC[C@H]1C(=O)N[C@H](C(=O)N[C@H](C(=O)N[C@@H](CO)C(=O)N[C@@H](CCCNC(=N)N)C(=O)N[C@@H](CCC(=O)O)C(=O)N(C)[C@@H](CC(=O)O)C(N)=O)C(C)C)[C@@H](C)O)C(C)C
B6: …(N-Me-S)RED (peptide)
peptide: Ac-PWAIVWGPTV[NMeS]RED-NH2
SMILES: CC[C@H](C)[C@H](NC(=O)[C@H](C)NC(=O)[C@H](Cc1c[nH]c2ccccc12)NC(=O)[C@@H]1CCCN1C(C)=O)C(=O)N[C@H](C(=O)N[C@@H](Cc1c[nH]c2ccccc12)C(=O)NCC(=O)N1CCC[C@H]1C(=O)N[C@H](C(=O)N[C@H](C(=O)N(C)[C@@H](CO)C(=O)N[C@@H](CCCNC(=N)N)C(=O)N[C@@H](CCC(=O)O)C(=O)N[C@@H](CC(=O)O)C(N)=O)C(C)C)[C@@H](C)O)C(C)C
B7: PWAIVWGP(N-Me-T)VSRED (peptide)
peptide: Ac-PWAIVWGP[NMeT]VSRED-NH2
SMILES: CC[C@H](C)[C@H](NC(=O)[C@H](C)NC(=O)[C@H](Cc1c[nH]c2ccccc12)NC(=O)[C@@H]1CCCN1C(C)=O)C(=O)N[C@H](C(=O)N[C@@H](Cc1c[nH]c2ccccc12)C(=O)NCC(=O)N1CCC[C@H]1C(=O)N(C)[C@H](C(=O)N[C@H](C(=O)N[C@@H](CO)C(=O)N[C@@H](CCCNC(=N)N)C(=O)N[C@@H](CCC(=O)O)C(=O)N[C@@H](CC(=O)O)C(N)=O)C(C)C)[C@@H](C)O)C(C)C

One may read the Ki as a measure of affinity in units of concentration, obtained from inhibition or displacement.

Non-standard residues stand in square brackets, D forms with d. 2Nal = N[C@@H](Cc1ccc2ccccc2c1)C(=O)O; NMeR = CN[C@@H](CCCNC(=N)N)C(=O)O; NMeT = CN[C@H](C(=O)O)[C@@H](C)O; NMeE = CN[C@@H](CCC(=O)O)C(=O)O; NMeD = CN[C@@H](CC(=O)O)C(=O)O; NMeV = CN[C@H](C(=O)O)C(C)C; NMeS = CN[C@@H](CO)C(=O)O

For one test, the target named is Sushi domains (SD1/2) protein of the GABAB1a (GB1a) subunit, recombinant. Kind of test: FP competition.
Sushi domains (SD1/2) protein of the GABAB1a (GB1a) subunit, recombinant, sequence (Q9Z0U4 29-158): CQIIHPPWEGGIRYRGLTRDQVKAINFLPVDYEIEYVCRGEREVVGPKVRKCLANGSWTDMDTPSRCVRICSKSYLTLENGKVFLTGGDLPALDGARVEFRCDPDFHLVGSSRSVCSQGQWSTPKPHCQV
For Ac-EDDSDVWWGGADHD-NH2, the inhibition constant (Ki) worked out at 739 nM.
Same read-out and setting: to B1 belongs 13 nM.
For Ac-EDDSDVWWGGADED-NH2, the inhibition constant Ki was determined as 337 nM.
The same measure, in the same setting: to Ac-KDDSDVWWGGADTD-NH2 belongs 1520 nM.
The same measure, in the same setting: to Ac-RRRRRRRREAAAKEDDDWIDWGPTSDDD-NH2 [R8-RL-17 (…)] belongs 105 nM.
For the molecule Ac-EDDSDVWWHGADTD-NH2, the Ki turned out to be 270 nM.
On the same count and under the same terms, to Ac-EDDDWIDWGPTSDDDEAAAKRRRRRRRR-NH2 [17-RL-R8 (…)] belongs 139 nM.
Still for that read-out and setting: the value for Ac-EDDSYVWWGGADTD-NH2 was 191 nM; that for Ac-RRRRRRRREDDDWIDWGPTSDDD-NH2 [R8-17 (Ac-…-NH2)] was 58 nM; that for B2 was 1780 nM.
Ac-EDDSDVWWDGADTD-NH2: the Ki was found to be 429 nM.
On the same count and under the same terms, to B3 belongs 502 nM.
Same read-out and setting: to Ac-EDDDWIDWYDSDDDGGGGSRRRRRRRR-NH2 [16-FL-R8 (…)] belongs 118 nM; to Ac-EDDSDVWWGGYDTD-NH2, 255 nM; to Ac-EDDDWIDWYDSDDDEAAAKRRRRRRRR-NH2 [16-RL-R8 (…)], 100 nM.
The same measure, in the same setting: the value for Ac-RRRRRRRREAAAKEDDDWIDWYDSDDD-NH2 [R8-RL-16 (…)] was 314 nM; that for Ac-EDDSDIWWGGADTD-NH2 was 401 nM; that for Ac-EDDSDVYWGGADTD-NH2 was 3600 nM.
Ac-EDDSDVWWGGHDTD-NH2: the Ki was determined as 346 nM.
On the same count and under the same terms, to B4 belongs 523 nM.
For Ac-EDDSDVDWGGADTD-NH2, the Ki came out at 4800 nM.
Still for that read-out and setting: the value for Ac-EDDDWIDWYDSDDDRRRRRRRR-NH2 [16-R8 (…)] was 65 nM.
The same measure, in the same setting: the value for Ac-EDDDWIDWGPTSDDDRRRRRRRR-NH2 [17-R8 (…)] was 123 nM; that for Ac-EDDDWIDWGPTSDDDGGGGSRRRRRRRR-NH2 [17-FL-R8 (…)] was 147 nM; that for Ac-EDDSDVWWGGADWD-NH2 was 459 nM.
The same measure, in the same setting: the value for Ac-EDDSFVWWGGADTD-NH2 was 142 nM; that for B5 was 434 nM; that for Ac-EDDSIVWWGGADTD-NH2 was 243 nM.
For Ac-EDDSDVWWGPADTD-NH2, the Ki was found to be 332 nM.
On the same count and under the same terms, the value for Ac-RRRRRRRRGGGGSEDDDWIDWYDSDDD-NH2 [R8-FL-16 (…)] was 280 nM.
Still for that read-out and setting: to Ac-EDDSDVIWGGADTD-NH2 belongs 951 nM.
Still for that read-out and setting: to Ac-EDDSDVWWGGSDTD-NH2 belongs 204 nM; to Ac-EDDWDVWWGGADTD-NH2, 257 nM.
With Ac-RRRRRRRRGGGGSEDDDWIDWGPTSDDD-NH2 [R8-FL-17 (…)], the Ki came out at 140 nM.
Still for that read-out and setting: to B6 belongs 1040 nM.
As for B7, the Ki came out at 1260 nM.

For another test, the target named is Sushi domains (SD1/2) protein of GABAB1a (GB1a). The experiment in a line: FP competition vs TAMRA AJAP-1probe.
Sushi domains (SD1/2) protein of GABAB1a (GB1a), sequence (Q9Z0U4 29-158): as the sequence (Q9Z0U4 29-158) above
In turn, Ac-ETDFIAWGPTGDED-NH2 gave an inhibitory constant (Ki) of 26 nM.
On the same count and under the same terms, to Ac-NTEFIAWGPTGDED-NH2 belongs 62 nM; to Ac-ETSFIAWGPTGDED-NH2, 34 nM.
Take Ac-ETEWIAWGPTGDED-NH2: the Ki worked out at 35 nM.
Molecule Ac-RTEFIAWGPTGDED-NH2 yielded a Ki of 87 nM.
The same measure, in the same setting: to Ac-EVEFIAWGPTGDED-NH2 belongs 28 nM.

The record behind these values is patent US20260193293A1, “PEPTIDES CAPABLE OF INHIBITING PROTEIN-PROTEIN INTERACTIONS AT GABAB1A SUBUNIT AND USES THEREOF” (UNIVERSITY OF COPENHAGEN, priority 2022, published 2026).
